Experimental data as given in PMC3247260, “Domain Analysis Reveals That a Deubiquitinating Enzyme USP13 Performs Non-Activating Catalysis for Lys63-Linked Polyubiquitin” (PLoS ONE, 2011).
Numbering of substitutions follows the chain as printed. Names and notes keep the numbering of the source.

B1: USP5-ZnF R222W (domain or fragment, human, UniProt P45974 169-289, looked up)
chain: WDGEVRQVSKHAFSLKQLDNPARIPPCGWKCSKCDMRENLWLNLTDGSILCGRWYFDGSGGNNHAVEHYRETGYPLAVKLGTITPDGADVYSYDEDDMVLDPSLAEHLSHFGIDMLKMQKT
notes: USP5, human, ZnF domain, residues 169-289, point mutant in pET-M; source: E. coli BL21, purified (Ni-NTA agarose, size-exclusion chromatography)
B2: USP5-ZnF R222W/Y223F (domain or fragment, human, UniProt P45974 169-289, looked up)
chain: B1 chain with Y55F
notes: as for B1
B3: ZnF domain of USP5 (USP5-ZnF, residues 169-289), wild type (domain or fragment, human, UniProt P45974 169-289, looked up)
chain: B1 chain with W54R
notes: USP5 (isopeptidase T, isoT), human, zinc finger (ZnF) domain, residues 169-289, cloned into pET-M; also called WT; source: E. coli BL21, purified (Ni-NTA agarose, size-exclusion chromatography)
B4: USP5-ZnF Y261F (domain or fragment, human, UniProt P45974 169-289, looked up)
chain: B1 chain with W54R, Y93F
notes: as for B1
B5: USP5-ZnF Y223F (domain or fragment, human, UniProt P45974 169-289, looked up)
chain: B1 chain with W54R, Y55F
notes: as for B1
B6: USP5-ZnF R221K (domain or fragment, human, UniProt P45974 169-289, looked up)
chain: B1 chain with R53K, W54R
notes: as for B1
B7: USP13 (residues 21-863) (enzyme, human, UniProt Q92995 21-863, looked up)
chain: AGDIGELLVPHMPTIRVPRSGDRVYKNECAFSYDSPNSEGGLYVCMNTFLAFGREHVERHFRKTGQSVYMHLKRHVREKVRGASGGALPKRRNSKIFLDLDTDDDLNSDDYEYEDEAKLVIFPDHYEIALPNIEELPALVTIACDAVLSSKSPYRKQDPDTWENELPVSKYANNLTQLDNGVRIPPSGWKCARCDLRENLWLNLTDGSVLCGKWFFDSSGGNGHALEHYRDMGYPLAVKLGTITPDGADVYSFQEEEPVLDPHLAKHLAHFGIDMLHMHGTENGLQDNDIKLRVSEWEVIQESGTKLKPMYGPGYTGLKNLGNSCYLSSVMQAIFSIPEFQRAYVGNLPRIFDYSPLDPTQDFNTQMTKLGHGLLSGQYSKPPVKSELIEQVMKEEHKPQQNGISPRMFKAFVSKSHPEFSSNRQQDAQEFFLHLVNLVERNRIGSENPSDVFRFLVEERIQCCQTRKVRYTERVDYLMQLPVAMEAATNKDELIAYELTRREAEANRRPLPELVRAKIPFSACLQAFSEPENVDDFWSSALQAKSAGVKTSRFASFPEYLVVQIKKFTFGLDWVPKKFDVSIDMPDLLDINHLRARGLQPGEEELPDISPPIVIPDDSKDRLMNQLIDPSDIDESSVMQLAEMGFPLEACRKAVYFTGNMGAEVAFNWIIVHMEEPDFAEPLTMPGYGGAASAGASVFGASGLDNQPPEEIVAIITSMGFQRNQAIQALRATNNNLERALDWIFSHPEFEEDSDFVIEMENNANANIISEAKPEGPRVKDGSGTYELFAFISHMGTSTMSGHYICHIKKEGRWVIYNDHKVCASERPPKDLGYMYFYRRIPS
notes: Ubiquitin-specific protease 13 (USP13, isoT3), human, residues 21-863, cloned into pET-32M; The results call it full-length USP13; the methods give residues 21-863; also called full-length USP13; source: E. coli BL21, purified (Ni-NTA agarose, size-exclusion chromatography)
B8: tandem UBA domains of USP13 (USP13-UBA12, residues 652-776) (domain or fragment, human, UniProt Q92995 652-776, looked up)
chain: DIDESSVMQLAEMGFPLEACRKAVYFTGNMGAEVAFNWIIVHMEEPDFAEPLTMPGYGGAASAGASVFGASGLDNQPPEEIVAIITSMGFQRNQAIQALRATNNNLERALDWIFSHPEFEEDSDF
notes: USP13, human, tandem UBA domains (UBA1 and UBA2), residues 652-776, cloned into pET-32M; 15N-labelled in the NMR titrations; source: E. coli BL21, purified (Ni-NTA agarose, size-exclusion chromatography)

What was measured:
Conditions in all cases: both partners purified
ubiquitin (Ub) [1] = target: T1, ubiquitin (Ub) (UniProt P0CG48 1-76); assay: ITC; Ub (1 mM stock) injected into USP13-ZnF, USP5-ZnF or its mutants (50 µM), 25 injections of 8 µL; 50 mM Tris, 150 mM NaCl, pH 7.5, 1 mM DTT; 25°C
T1 construct: ubiquitin, free monomer; only a GST-fused Ub construct is named in the methods; also called free Ub; monoUb

GST-fused Ub = target: T2, GST-fused Ub (UniProt P0CG48 1-76); assay: pull-down; GST-fused Ub, ISG15, SUMO1 or SUMO2 loaded on glutathione agarose, USP13 or USP13-UBA12 (~100 µM) added; 1-hr incubation, washed three times, eluted by GSH buffer; SDS-PAGE with Coomassie blue staining
T2 construct: ubiquitin (Ub); cDNA inserted into pGEX-4T-3; also called GST-Ub; source: E. coli BL21, purified (glutathione agarose)

ubiquitin (Ub) [2] = target: T1, ubiquitin (Ub); assay: NMR titration; 15N-labeled USP13-UBA12 or USP5-ZnF (~0.2 mM) titrated with Ub (or ISG15), 1H-15N HSQC spectra; 20 mM phosphate, 50 mM NaCl, pH 6.5
linear diUb = target: T3, linear diUb (UniProt P0CG48 1-76; P0CG48 1-76); assay: ITC; USP13-UBA12 (1.25 mM stock) injected into K63-, K48-, linear diUb (0.1 mM) or monoUb (0.2 mM), 25 injections of 1.5 µL; 50 mM Tris, 150 mM NaCl, pH 7.5; 25°C
T3 construct: ubiquitin, first unit of the linear (head-to-tail) dimer; ubiquitin, second unit of the linear (head-to-tail) dimer; also called linear linked diUb

Binder	Kd (ubiquitin (Ub) [1]) [µM]	also measured
B1	9.1	
B2	16	
B3	2.3	
B4	88	
B5	6.4	
B6	100	
B7		binding result (GST-fused Ub): binds
B8		binding result (ubiquitin (Ub) [2]): binds; binding result (linear diUb): binds; binding result (GST-fused Ub): binds
